The source of these data is patent US20230391853A1 (FAPON BIOTECH, published 2023).

The assay addresses T1, 2019-nCoV N protein antigen (2019-nCoV (novel coronavirus), UniProt P0DTC9 1-419).
T1 construct: Coated on plates in ELISA; in solution in the AMC sensor assay; also called N protein of the novel coronavirus; nucleocapsid protein (N protein)
The assay can be described thus: AMC sensor kinetics, antibody captured. The protocol: Operational process: equilibrium was performed in buffer 1 (PBST) for 60 s, the antibody was cured in an antibody solution for 300 s, incubation was performed in buffer 2 (PBST) for 180 s, binding was performed in an antigen solution for 420 s, dissociation was performed in buffer 2 for 1200 s, sensor regeneration was performed with a 10 mM pH 1.69 GLY solution and buffer 3, and data were outputted. KD represents an equilibrium dissociation constant, that was, the affinity; kon represents the binding rate; and kdis represents the dissociation rate.

B1: WT (antibody, mouse IgG1, kappa, V domains shown)
VH: DVQLVESGGGLVQPGGSRKLSCAASGVTFSTFAMHWVRQAPEKGLEWVAYLNSASNLIYYADTLKGRFTISRDNPKNTLFLQMTSLRSEDTAMYYCTRHAMDYWGQGTSVTVSS
VL: DIVLTQSPASLAVSLGQRATISCKASQSIDYDGDSFMNWFQQKPGQPPKLLIYDASNVESGIPARFSGSGSGTDFTLNIHPVEEEDAATYYCQHSNEDPYTFGGGTKLEIKR
notes: also called VT; antibody in Embodiment 1
B1 returned a Kd of 8.03 nM, a koff of 0.00141 s⁻¹ and a kon of 175000 M⁻¹ s⁻¹.

Usually Kd stands for the equilibrium constant for the complex coming apart. As usually defined, the koff is the first-order rate constant of dissociation. Low readings indicate a long-lived complex, high ones a short-lived complex. As a reminder, the kon is a measure of how fast the partners come together. A lower kon goes with slower complex formation.
